Tested on: peptide library, one residue held at a place counted from the S/T acceptor
Assay: relative phosphorylation of the sub-library (ratio to the mean residue at this position); higher = residue favoured
Conditions: human
How it was run: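 Each biotinylated degenerate peptide sub-library fixed one residue at one position around a central Ser/Thr and was incubated with a purified recombinant kinase, a human or orthologue construct, in 384-well plates. The 90 min reactions, under kinase-specific conditions, contained 50 μM peptide and 50 μM ATP spiked with γ-32P-ATP. Phosphorylation was read by phosphorimaging spots on streptavidin membranes and quantifying them by densitometry. Relative sub-library phosphorylation expresses each value as a ratio to the mean residue at that position.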

Chain of NUAK2, construct: Full length (Q9H093 whole entry, looked up): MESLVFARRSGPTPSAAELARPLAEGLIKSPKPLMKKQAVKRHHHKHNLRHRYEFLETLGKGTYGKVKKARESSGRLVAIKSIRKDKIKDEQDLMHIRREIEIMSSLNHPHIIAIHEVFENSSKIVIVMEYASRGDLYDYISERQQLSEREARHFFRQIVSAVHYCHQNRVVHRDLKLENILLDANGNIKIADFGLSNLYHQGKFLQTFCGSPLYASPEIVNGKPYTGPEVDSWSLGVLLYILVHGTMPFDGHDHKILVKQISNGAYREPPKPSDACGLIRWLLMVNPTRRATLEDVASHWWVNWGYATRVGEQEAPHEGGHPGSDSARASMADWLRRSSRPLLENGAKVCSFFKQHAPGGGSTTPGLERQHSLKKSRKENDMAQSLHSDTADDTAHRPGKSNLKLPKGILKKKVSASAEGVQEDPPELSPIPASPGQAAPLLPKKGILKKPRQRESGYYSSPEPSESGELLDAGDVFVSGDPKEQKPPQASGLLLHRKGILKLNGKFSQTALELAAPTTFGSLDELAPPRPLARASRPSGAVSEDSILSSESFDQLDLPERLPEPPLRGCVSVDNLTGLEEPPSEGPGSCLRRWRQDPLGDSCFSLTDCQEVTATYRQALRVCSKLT
Chain of MARK1, construct: Full length (Q9P0L2 whole entry, looked up): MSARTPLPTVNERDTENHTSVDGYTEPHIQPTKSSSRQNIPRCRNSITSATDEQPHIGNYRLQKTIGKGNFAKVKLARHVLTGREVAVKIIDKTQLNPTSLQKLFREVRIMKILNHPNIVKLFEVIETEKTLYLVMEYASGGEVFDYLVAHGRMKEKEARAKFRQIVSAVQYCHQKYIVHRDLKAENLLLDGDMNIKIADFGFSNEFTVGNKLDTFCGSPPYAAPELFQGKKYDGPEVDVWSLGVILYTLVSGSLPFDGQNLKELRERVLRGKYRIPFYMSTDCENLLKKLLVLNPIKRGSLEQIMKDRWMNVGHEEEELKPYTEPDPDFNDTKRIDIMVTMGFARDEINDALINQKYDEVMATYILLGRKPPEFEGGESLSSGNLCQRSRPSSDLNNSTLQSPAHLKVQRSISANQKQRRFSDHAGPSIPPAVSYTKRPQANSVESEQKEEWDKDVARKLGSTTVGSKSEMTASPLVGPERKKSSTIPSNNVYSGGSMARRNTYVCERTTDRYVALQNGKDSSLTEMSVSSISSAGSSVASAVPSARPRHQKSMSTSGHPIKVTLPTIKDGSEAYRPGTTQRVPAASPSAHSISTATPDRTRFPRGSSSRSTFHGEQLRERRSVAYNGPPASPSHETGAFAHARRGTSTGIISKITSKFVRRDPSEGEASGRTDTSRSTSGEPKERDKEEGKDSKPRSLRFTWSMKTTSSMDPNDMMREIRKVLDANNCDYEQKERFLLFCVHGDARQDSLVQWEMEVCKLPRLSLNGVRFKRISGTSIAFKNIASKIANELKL
Chain of MARK3, construct: Full length (P27448 whole entry, looked up): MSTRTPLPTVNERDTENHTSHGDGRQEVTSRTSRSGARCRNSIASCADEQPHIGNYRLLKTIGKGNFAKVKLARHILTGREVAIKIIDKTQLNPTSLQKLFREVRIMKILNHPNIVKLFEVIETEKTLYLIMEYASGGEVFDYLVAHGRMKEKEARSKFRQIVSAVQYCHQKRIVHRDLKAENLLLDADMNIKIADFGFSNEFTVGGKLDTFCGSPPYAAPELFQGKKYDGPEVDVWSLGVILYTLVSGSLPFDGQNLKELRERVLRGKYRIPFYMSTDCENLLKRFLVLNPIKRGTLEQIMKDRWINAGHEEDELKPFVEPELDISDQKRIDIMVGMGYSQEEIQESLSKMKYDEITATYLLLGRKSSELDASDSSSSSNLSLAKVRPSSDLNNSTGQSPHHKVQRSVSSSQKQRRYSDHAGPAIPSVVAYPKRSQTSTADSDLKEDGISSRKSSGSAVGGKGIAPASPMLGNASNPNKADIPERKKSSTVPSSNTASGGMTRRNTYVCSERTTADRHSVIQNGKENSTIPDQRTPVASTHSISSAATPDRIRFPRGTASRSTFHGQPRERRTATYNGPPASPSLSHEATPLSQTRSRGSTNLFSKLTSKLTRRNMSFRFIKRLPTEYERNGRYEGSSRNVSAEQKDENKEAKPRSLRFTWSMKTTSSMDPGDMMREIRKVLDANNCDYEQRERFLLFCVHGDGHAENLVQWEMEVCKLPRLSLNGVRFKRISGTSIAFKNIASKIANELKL

MARK1, construct: Full length (from UniProt Q9P0L2)
relative phosphorylation
Conditions | at +1 | at +2 | at +3 | at +4 | at -1 | at -2 | at -3 | at -4 | at -5
A fixed | 0.647 | 0.684 | 0.599 | 0.352 | 1.02 | 1.84 | 0.723 | 0.974 | 0.972
D fixed | 0.508 | 0.722 | 3.18 | 0.56 | 0.625 | 0.335 | 0.358 | 0.782 | 0.715
E fixed | 0.778 | 1.09 | 0.947 | 0.373 | 0.616 | 0.261 | 0.408 | 0.696 | 0.695
F fixed | 0.81 | 0.764 | 0.898 | 0.713 | 0.635 | 1.48 | 0.885 | 1.05 | 1.18
G fixed | 0.497 | 0.392 | 0.379 | 0.421 | 2.38 | 0.96 | 0.556 | 1.07 | 0.906
H fixed | 0.787 | 1.08 | 1.44 | 0.589 | 0.783 | 1.35 | 1.36 | 1.25 | 0.858
I fixed | 1.2 | 0.885 | 0.565 | 2.73 | 0.557 | 0.503 | 0.555 | 0.654 | 0.974
K fixed | 0.837 | 0.57 | 0.587 | 0.483 | 1.72 | 0.994 | 2.18 | 1.38 | 1.26
L fixed | 1.42 | 1.13 | 0.877 | 4.86 | 0.751 | 0.491 | 0.642 | 0.747 | 1.51
M fixed | 2.28 | 1.12 | 0.774 | 1.4 | 0.963 | 0.76 | 0.883 | 0.967 | 1.27
N fixed | 0.949 | 0.968 | 2.63 | 0.679 | 1.1 | 0.576 | 0.571 | 0.865 | 0.739
P fixed | 0.28 | 0.59 | 0.171 | 0.382 | 1.13 | 0.428 | 0.716 | 0.856 | 0.775
Q fixed | 1.76 | 1.04 | 0.911 | 0.615 | 1.16 | 0.569 | 0.7 | 0.805 | 0.862
R fixed | 1.14 | 0.69 | 0.476 | 0.384 | 1.41 | 1.08 | 3.66 | 1.75 | 1.48
V fixed | 1.36 | 0.879 | 0.487 | 1.28 | 0.75 | 0.676 | 0.525 | 0.798 | 0.903
W fixed | 0.847 | 3.44 | 1.03 | 0.626 | 0.636 | 3.1 | 1.39 | 1.26 | 1.02
Y fixed | 0.903 | 0.958 | 1.05 | 0.555 | 0.766 | 1.6 | 0.884 | 1.09 | 0.877
pThr fixed | 1.58 | 1.08 | 0.457 | 0.348 | 0.378 | 0.43 | 0.445 | 0.692 | 0.614
pTyr fixed | 0.712 | 0.641 | 0.828 | 0.368 | 0.881 | 0.508 | 0.543 | 0.659 | 0.758

MARK3, construct: Full length (from UniProt P27448)
relative phosphorylation
Conditions | at +1 | at +2 | at +3 | at +4 | at -1 | at -2 | at -3 | at -4 | at -5
A fixed | 0.634 | 0.761 | 0.599 | 0.335 | 1.09 | 2.23 | 0.806 | 1.19 | 1.16
D fixed | 0.414 | 0.68 | 2.56 | 0.456 | 0.61 | 0.317 | 0.412 | 0.765 | 0.758
E fixed | 0.82 | 0.902 | 0.95 | 0.319 | 0.605 | 0.263 | 0.458 | 0.703 | 0.72
F fixed | 0.651 | 0.746 | 0.792 | 0.619 | 0.499 | 1.29 | 0.758 | 0.987 | 1.12
G fixed | 0.542 | 0.47 | 0.559 | 0.385 | 2.52 | 1.37 | 0.687 | 1.32 | 1.03
H fixed | 0.76 | 0.879 | 1.56 | 0.489 | 0.708 | 1.21 | 1.41 | 1.19 | 0.86
I fixed | 1.14 | 0.863 | 0.486 | 2.82 | 0.441 | 0.444 | 0.497 | 0.565 | 0.817
K fixed | 0.932 | 0.651 | 0.731 | 0.487 | 1.92 | 0.995 | 2.2 | 1.71 | 1.4
L fixed | 1.25 | 1.16 | 0.782 | 5.82 | 0.654 | 0.392 | 0.6 | 0.642 | 1.49
M fixed | 2.38 | 0.994 | 0.708 | 1.22 | 0.75 | 0.571 | 0.772 | 0.833 | 1.06
N fixed | 1.26 | 0.998 | 3.05 | 0.526 | 1.06 | 0.583 | 0.682 | 0.916 | 0.627
P fixed | 0.337 | 0.826 | 0.2 | 0.348 | 1.37 | 0.546 | 0.925 | 1.13 | 0.964
Q fixed | 1.62 | 0.955 | 0.929 | 0.473 | 1.19 | 0.488 | 0.736 | 0.808 | 0.722
R fixed | 1.45 | 0.708 | 0.706 | 0.349 | 1.66 | 0.969 | 3.51 | 1.52 | 1.45
V fixed | 1.23 | 0.898 | 0.488 | 1.33 | 0.707 | 0.628 | 0.524 | 0.673 | 0.824
W fixed | 0.75 | 3.62 | 0.927 | 0.557 | 0.585 | 3.05 | 1.19 | 1.19 | 1.08
Y fixed | 0.831 | 0.888 | 0.969 | 0.461 | 0.633 | 1.65 | 0.83 | 0.856 | 0.915
pThr fixed | 1.49 | 1.34 | 0.404 | 0.369 | 0.348 | 0.44 | 0.553 | 0.726 | 0.573
pTyr fixed | 0.705 | 0.679 | 0.944 | 0.328 | 0.841 | 0.64 | 0.855 | 0.686 | 0.735

NUAK2, construct: Full length (from UniProt Q9H093)
relative phosphorylation
Conditions | at +1 | at +2 | at +3 | at +4 | at -1 | at -2 | at -3 | at -4 | at -5
A fixed | 0.911 | 0.916 | 0.886 | 0.691 | 1.22 | 1.89 | 0.724 | 1.15 | 0.804
D fixed | 0.559 | 0.547 | 1.29 | 0.509 | 0.855 | 0.865 | 0.378 | 0.554 | 0.385
E fixed | 0.598 | 0.535 | 0.635 | 0.498 | 0.549 | 0.503 | 0.514 | 0.867 | 0.435
F fixed | 1.71 | 0.654 | 1.16 | 0.862 | 0.705 | 0.722 | 0.461 | 0.764 | 1.07
G fixed | 1.18 | 1.14 | 0.712 | 0.702 | 1.42 | 0.979 | 0.725 | 0.862 | 0.603
H fixed | 0.898 | 1.35 | 1.61 | 0.907 | 0.911 | 0.659 | 1.01 | 0.912 | 0.605
I fixed | 0.691 | 0.99 | 0.713 | 2.05 | 0.45 | 0.761 | 0.452 | 1 | 2.27
K fixed | 1.08 | 1.66 | 1.26 | 1.32 | 1.44 | 0.975 | 2.61 | 1.59 | 1.3
L fixed | 0.739 | 0.839 | 0.705 | 1.87 | 0.84 | 0.528 | 0.541 | 0.858 | 1.73
M fixed | 1.24 | 0.909 | 0.828 | 1.55 | 1.07 | 0.83 | 0.73 | 1.37 | 1.02
N fixed | 1 | 1.07 | 1.44 | 0.74 | 1.26 | 2.66 | 0.566 | 0.628 | 0.435
P fixed | 0.896 | 0.727 | 0.529 | 0.679 | 1.42 | 0.602 | 0.88 | 0.86 | 0.735
Q fixed | 1.16 | 0.745 | 0.766 | 0.624 | 1.09 | 1.23 | 0.739 | 0.954 | 0.613
R fixed | 1.51 | 2.48 | 1.69 | 1.1 | 1.65 | 1.23 | 5.28 | 1.8 | 1.66
V fixed | 0.763 | 0.927 | 0.614 | 1.07 | 0.581 | 1.26 | 0.443 | 1.13 | 1.74
W fixed | 0.868 | 0.717 | 1.07 | 0.931 | 0.557 | 0.598 | 0.471 | 0.837 | 0.687
Y fixed | 1.19 | 0.785 | 1.09 | 0.896 | 0.962 | 0.709 | 0.474 | 0.856 | 0.894
pThr fixed | 1.13 | 1.29 | 0.495 | 0.708 | 0.389 | 0.808 | 0.725 | 0.919 | 0.653
pTyr fixed | 0.814 | 0.59 | 0.71 | 0.605 | 1.03 | 0.477 | 0.531 | 0.602 | 0.76

— the supplement of paper PMC9876800
